Assay [1] concerns the target SARS-CoV-2 Sclamp (SARS-CoV-2) (UniProt P0DTC2).
Assay [2] has the same target. In words: characterization of the lead candidate; ELISA per paragraph 282. (An ELISA detects its analyte on a solid surface through an enzyme-linked reagent.)
For assay [3] the target is unchanged. The assay is described as follows: ELISA on purified antigen, antibody titrated.
The target of assay [4] is SARS-CoV-2-foldon (SARS-CoV-2) (UniProt P0DTC2). The assay is described as follows: ELISA on purified antigen, antibody titrated.

Where two headings read alike, the source gives them in different places.

What is called Kd is the concentration at which binding is half-saturated. High values mean a looser complex, low ones a tighter complex. With CB6 (antibody), the Kd in assay [1] is 0.15 nM.

As for CR3022 (antibody), the figures for the Kd in assay [1] and in assay [2] were 0.13 nM and 0.3 nM, respectively.

For orientation: EC50 (read off the curve) means the concentration needed to bring the measured effect to its halfway point. For DH1047 (antibody), the EC50 (read off the curve) in assay [3] stood at 0.3 nM; in assay [4], 0.4 nM.

Take S309 (antibody): the Kd in assay [1] turned out to be 0.08 nM.

Consider huCR3022 (antibody), for which the EC50 (read off the curve) in assay [3] and in assay [4] was 0.6 nM in each case.

For the origin of these results see US20240033343A1.
